Target: CbpAC (pneumococcal surface protein C variant) of nonencapsulated Streptococcus pneumoniae strain MNZ41 (Streptococcus pneumoniae (nonencapsulated strain MNZ41))
Experiment: flow cytometry on cells; 10^7 CFU viable pneumococci incubated with 200 µl of 10 µg/ml nonspecific mouse IgA for 1 h on ice; detected with biotinylated goat anti-mouse IgA and streptavidin-Alexa Fluor 488; percent positive cells gated above background

Question: For nonspecific mouse IgA (antibody), which percent positive cells (MNZ41 bacteria expressing CbpAC) is on record?
Answer: The percent positive cells (MNZ41 bacteria expressing CbpAC) was 58.6%.

Source: paper PMC5770551
